Source: IntAct's records for PubMed 29039417

B1: BBSome complex member BBS1 (Homo sapiens), Q8NFJ9 (parent)
chain: MAAASSSDSDACGAESNEANSKWLDAHYDPMANIHTFSACLALADLHGDGEYKLVVGDLGPGGQQPRLKVLKGPLVMTESPLPALPAAAATFLMEQHEPRTPALALASGPCVYVYKNLRPYFKFSLPQLPPNPLEQDLWNQAKEDRIDPLTLKEMLESIRETAEEPLSIQSLRFLQLELSEMEAFVNQHKSNSIKRQTVITTMTTLKKNLADEDAVSCLVLGTENKELLVLDPEAFTILAKMSLPSVPVFLEVSGQFDVEFRLAAACRNGNIYILRRDSKHPKYCIELSAQPVGLIRVHKVLVVGSTQDSLHGFTHKGKKLWTVQMPAAILTMNLLEQHSRGLQAVMAGLANGEVRIYRDKALLNVIHTPDAVTSLCFGRYGREDNTLIMTTRGGGLIIKILKRTAVFVEGGSEVGPPPAQAMKLNVPRKTRLYVDQTLREREAGTAMHRAFQTDLYLLRLRAARAYLQALESSLSPLSTTAREPLKLHAVVQGLGPTFKLTLHLQNTSTTRPVLGLLVCFLYNEALYSLPRAFFKVPLLVPGLNYPLETFVESLSNKGISDIIKVLVLREGQSAPLLSAHVNMPGSEGLAAA
partner: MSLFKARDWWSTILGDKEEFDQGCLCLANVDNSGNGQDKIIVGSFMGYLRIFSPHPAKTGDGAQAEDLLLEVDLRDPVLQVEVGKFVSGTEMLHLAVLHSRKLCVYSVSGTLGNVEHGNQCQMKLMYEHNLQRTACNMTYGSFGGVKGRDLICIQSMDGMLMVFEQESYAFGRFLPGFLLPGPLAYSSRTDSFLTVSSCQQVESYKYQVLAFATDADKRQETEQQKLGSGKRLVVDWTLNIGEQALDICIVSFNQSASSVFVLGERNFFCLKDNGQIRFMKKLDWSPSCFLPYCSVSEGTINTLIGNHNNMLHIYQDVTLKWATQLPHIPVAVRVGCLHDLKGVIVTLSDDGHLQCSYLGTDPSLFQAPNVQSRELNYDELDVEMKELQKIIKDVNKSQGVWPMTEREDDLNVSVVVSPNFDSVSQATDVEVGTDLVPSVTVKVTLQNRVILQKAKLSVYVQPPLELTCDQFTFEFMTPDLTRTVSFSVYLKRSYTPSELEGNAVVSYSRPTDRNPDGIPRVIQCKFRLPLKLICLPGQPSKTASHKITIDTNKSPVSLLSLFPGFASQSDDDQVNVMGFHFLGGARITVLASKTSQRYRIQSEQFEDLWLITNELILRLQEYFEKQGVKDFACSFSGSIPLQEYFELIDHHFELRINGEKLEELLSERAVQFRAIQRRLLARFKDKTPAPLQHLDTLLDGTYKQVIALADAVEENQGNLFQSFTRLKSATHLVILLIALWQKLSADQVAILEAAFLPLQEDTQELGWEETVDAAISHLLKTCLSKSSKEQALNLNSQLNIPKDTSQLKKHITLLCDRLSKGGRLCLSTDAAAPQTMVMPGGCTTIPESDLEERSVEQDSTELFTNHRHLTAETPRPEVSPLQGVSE

Variants of: B1
Settings: with pthb1_human BBS9, Q3SYG4

Effect of a mutation on the interaction, with no effect:
MAAASSSDSDACGAESNEANSKWLDAHYDPMANIHTFSACLALADLHGDGEYKLVVGDLGPGGQQPRLKVLKGPLVMTESPLPALPAAAATFLMEQHEPRTPALALASGPCVYVYKNLRPYFKFSLPQLPPNPLEQDLWNQAKEDRIDPLTLKEMLESIRETAEEPLSIQSLRFLQLELSEMEAFVNQHKSNSIKRQTVITTMTTLKKNLADEDAVSCLVLGTENKELLVLDPEAFTILAKMSLPSVPVFLEVSGQFDVEFRLAAACRNGNIYILRRDSKHPKYCIELSAQPVGLIRVHKVLVVGSTQDSLHGFTHKGKKLWTVQMPAAILTMNLLEQHSRGLQAVMAGLANGEVRIYRDKALLNVIHTPDAVTSLCFGRYGREDNTLIMTTRGGGLIIKILKRTAVFVEGGSEVGPPPAQAMKLNVPRKTRLYVDQTLREREAGTAMHRAFQTDLYLLRLRAARAYLQALESSLSPLSTTAREPLKLHAVVQGLGPTFKLTLHLQNTSTTRPVLGLLVCFLYNEALYSLPRAFFKVPLLVPGLNYPLETFVESLSNKGISDIIKVLVLREGQSAPLLSAHVNMPGSKGLAAA [E588K]
MAAASSSDSDACGAESNEANSKWLDAHYDPMANIHTFSACLALADLHGDGEYKLVVGDLGPGGQQPRLKVLKGPLVMTESPLPALPAAAATFLMEQHEPRTPALALASGPCVYVYKNLRPYFKFSLPQLPPNPLEQDLWNQAKEDRIDPLTLKEMLESIRETAEEPLSIQSLRFLQLELSEMEAFVNQHKSNSIKRQTVITTMTTLKKNLADEDAVSCLVLGTENKELLVLDPEAFTILAKMSLPSVPVFLEVSGQFDVEFRLAAACRNGNIYILRRDSKHPKYCIELSAQPVGLIRVHKVLVVGSTQDSLHGFTHKGKKLWTVQMPAAILTMNLLEQHSRGLQAVMAGLANGEVRIYRDKALLNVIHTPDAVTSLCFGRYGREDNTLIMTTRGGGLIIKILKRTAVFVEGGSEVGPPPAQAMKLNVPRKTRLYVDQTLREREAGTAMHRAFQTDLYLLRLRAARAYLQALESSLSPLSTTAREPLKLHAVVQGLGPTFKLTLHLQNTSTTRPVLGLLVCFLYNEALYSLPRAFFKVPLLVPGLNYPLETFVESLSNKGISDIIKVLVLREGQSAPLLSAHVNMPGSAGLAAA [E588A]
MAAASSSDSDACGAESNEANSKWLDAHYDPMANIHTFSACLALADLHGDGEYKLVVGDLGPGGQQPRLKVLKGPLVMTESPLPALPAAAATFLMEQHEPRTPALALASGPCVYVYKNLRPYFKFSLPQLPPNPLEQDLWNQAKEDRIDPLTLKEMLESIRETAEEPLSIQSLRFLQLELSEMEAFVNQHKSNSIKRQTVITTMTTLKKNLADEDAVSCLVLGTENKELLVLDPEAFTILAKMSLPSVPVFLEVSGQFDVEFRLAAACRNGNIYILRRDSKHPKYCIELSAQPVGLIRVHKVLVVGSTQDSLHGFTHKGKKLWTVQMPAAILTMNLLEQHSRGLQAVMAGLANGEVRIYRDKALLNVIHTPDAVTSLCFGRYGREDNTLIMTTRGGGLIIKILKRTAVFVEGGSEVGPPPAQAMKLNVPRKTRLYVDQTLREREAGTAMHRAFQTDLYLLRLRAARAYLQALESSLSPLSTTAREPLKLHAVVQGLGPTFKLTLHLQNTSTTRPVLGLLVCFLYNEALYSLPRAFFKVPLLVPGLNYPLETFVESLSNKGISDIIKVLVLREGQSAPLLSAHVNMPGSEALAAA [G589A]
MAAASSSDSDACGAESNEANSKWLDAHYDPMANIHTFSACLALADLHGDGEYKLVVGDLGPGGQQPRLKVLKGPLVMTESPLPALPAAAATFLMEQHEPRTPALALASGPCVYVYKNLRPYFKFSLPQLPPNPLEQDLWNQAKEDRIDPLTLKEMLESIRETAEEPLSIQSLRFLQLELSEMEAFVNQHKSNSIKRQTVITTMTTLKKNLADEDAVSCLVLGTENKELLVLDPEAFTILAKMSLPSVPVFLEVSGQFDVEFRLAAACRNGNIYILRRDSKHPKYCIELSAQPVGLIRVHKVLVVGSTQDSLHGFTHKGKKLWTVQMPAAILTMNLLEQHSRGLQAVMAGLANGEVRIYRDKALLNVIHTPDAVTSLCFGRYGREDNTLIMTTRGGGLIIKILKRTAVFVEGGSEVGPPPAQAMKLNVPRKTRLYVDQTLREREAGTAMHRAFQTDLYLLRLRAARAYLQALESSLSPLSTTAREPLKLHAVVQGLGPTFKLTLHLQNTSTTRPVLGLLVCFLYNEALYSLPRAFFKVPLLVPGLNYPLETFVESLSNKGISDIIKVLVLREGQSAPLLSAHVNMPGSEELAAA [G589E]
MAAASSSDSDACGAESNEANSKWLDAHYDPMANIHTFSACLALADLHGDGEYKLVVGDLGPGGQQPRLKVLKGPLVMTESPLPALPAAAATFLMEQHEPRTPALALASGPCVYVYKNLRPYFKFSLPQLPPNPLEQDLWNQAKEDRIDPLTLKEMLESIRETAEEPLSIQSLRFLQLELSEMEAFVNQHKSNSIKRQTVITTMTTLKKNLADEDAVSCLVLGTENKELLVLDPEAFTILAKMSLPSVPVFLEVSGQFDVEFRLAAACRNGNIYILRRDSKHPKYCIELSAQPVGLIRVHKVLVVGSTQDSLHGFTHKGKKLWTVQMPAAILTMNLLEQHSRGLQAVMAGLANGEVRIYRDKALLNVIHTPDAVTSLCFGRYGREDNTLIMTTRGGGLIIKILKRTAVFVEGGSEVGPPPAQAMKLNVPRKTRLYVDQTLREREAGTAMHRAFQTDLYLLRLRAARAYLQALESSLSPLSTTAREPLKLHAVVQGLGPTFKLTLHLQNTSTTRPVLGLLVCFLYNEALYSLPRAFFKVPLLVPGLNYPLETFVESLSNKGISDIIKVLVLREGQSAPLLSAHVNMPGKEGLAAA [S587K]
